Test results reported in article PMC11209618.

Experiments:
[1] = molecular target: voltage-gated sodium channel Nav1.4 (UniProt P35499)
[2] = molecular target: voltage-gated sodium channel Nav1.7 (UniProt Q15858)
[3] = molecular target: voltage-gated sodium channel Nav1.2 (UniProt Q99250)
[4] = molecular target: voltage-gated sodium channel Nav1.3 (UniProt Q9NY46)
[5] = molecular target: voltage-gated sodium channel Nav1.6 (UniProt Q9UQD0)
[6] = molecular target: voltage-gated sodium channel Nav1.1 (UniProt P35498)
[7] = molecular target: voltage-gated sodium channel Nav1.5 (UniProt Q14524)
[8] = molecular target: voltage-gated sodium channel Nav1.7 (UniProt Q15858); remark: listed apart in the source
[9] = molecular target: voltage-gated sodium channel Nav1.4 (UniProt P35499); remark: listed apart in the source

Chain of voltage-gated sodium channel Nav1.4 (P35499 whole entry): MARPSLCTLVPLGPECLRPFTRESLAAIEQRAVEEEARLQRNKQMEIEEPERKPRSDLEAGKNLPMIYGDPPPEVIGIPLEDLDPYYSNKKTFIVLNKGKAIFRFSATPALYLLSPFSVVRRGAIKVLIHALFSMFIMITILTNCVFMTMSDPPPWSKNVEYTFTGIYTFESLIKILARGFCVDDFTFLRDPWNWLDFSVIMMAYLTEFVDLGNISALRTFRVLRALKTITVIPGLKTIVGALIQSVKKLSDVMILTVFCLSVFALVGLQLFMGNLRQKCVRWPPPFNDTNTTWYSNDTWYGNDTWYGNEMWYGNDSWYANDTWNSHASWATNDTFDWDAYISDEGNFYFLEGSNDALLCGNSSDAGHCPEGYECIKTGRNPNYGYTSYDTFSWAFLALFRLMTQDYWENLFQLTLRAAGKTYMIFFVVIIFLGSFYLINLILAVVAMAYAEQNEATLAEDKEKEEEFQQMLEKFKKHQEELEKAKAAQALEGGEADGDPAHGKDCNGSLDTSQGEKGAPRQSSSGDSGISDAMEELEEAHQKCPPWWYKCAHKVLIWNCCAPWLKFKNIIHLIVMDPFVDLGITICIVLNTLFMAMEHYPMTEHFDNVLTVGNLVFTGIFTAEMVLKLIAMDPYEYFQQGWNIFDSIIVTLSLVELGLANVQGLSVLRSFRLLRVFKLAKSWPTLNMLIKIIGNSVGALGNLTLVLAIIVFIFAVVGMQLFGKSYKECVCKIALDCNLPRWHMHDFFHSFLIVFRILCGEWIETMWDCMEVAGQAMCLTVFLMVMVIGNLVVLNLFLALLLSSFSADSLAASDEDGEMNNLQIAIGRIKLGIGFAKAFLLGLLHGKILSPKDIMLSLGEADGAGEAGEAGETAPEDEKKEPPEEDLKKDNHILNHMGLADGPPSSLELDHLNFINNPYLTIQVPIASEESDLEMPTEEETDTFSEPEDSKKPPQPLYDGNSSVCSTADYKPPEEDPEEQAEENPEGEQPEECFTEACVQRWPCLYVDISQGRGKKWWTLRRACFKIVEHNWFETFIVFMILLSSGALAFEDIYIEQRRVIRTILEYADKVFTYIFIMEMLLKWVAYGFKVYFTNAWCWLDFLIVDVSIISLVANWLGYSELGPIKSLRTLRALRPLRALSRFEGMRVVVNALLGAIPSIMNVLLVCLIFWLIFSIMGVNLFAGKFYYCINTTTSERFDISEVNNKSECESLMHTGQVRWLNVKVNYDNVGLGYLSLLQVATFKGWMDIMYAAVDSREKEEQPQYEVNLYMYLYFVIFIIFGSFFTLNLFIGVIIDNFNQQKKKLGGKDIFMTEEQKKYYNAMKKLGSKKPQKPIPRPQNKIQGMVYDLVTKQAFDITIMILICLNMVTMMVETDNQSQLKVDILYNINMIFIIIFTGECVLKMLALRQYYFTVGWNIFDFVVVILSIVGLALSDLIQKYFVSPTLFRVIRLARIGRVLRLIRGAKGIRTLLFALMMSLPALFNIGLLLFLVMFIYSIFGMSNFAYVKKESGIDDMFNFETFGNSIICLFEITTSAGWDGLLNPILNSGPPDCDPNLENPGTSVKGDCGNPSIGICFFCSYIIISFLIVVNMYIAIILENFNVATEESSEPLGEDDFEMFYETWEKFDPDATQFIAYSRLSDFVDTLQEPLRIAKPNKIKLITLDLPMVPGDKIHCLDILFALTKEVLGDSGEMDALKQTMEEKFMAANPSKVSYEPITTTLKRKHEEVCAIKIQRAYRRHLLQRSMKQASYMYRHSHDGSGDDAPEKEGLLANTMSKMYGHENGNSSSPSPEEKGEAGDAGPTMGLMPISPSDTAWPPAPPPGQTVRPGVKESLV
Chain of voltage-gated sodium channel Nav1.7 (Q15858 whole entry): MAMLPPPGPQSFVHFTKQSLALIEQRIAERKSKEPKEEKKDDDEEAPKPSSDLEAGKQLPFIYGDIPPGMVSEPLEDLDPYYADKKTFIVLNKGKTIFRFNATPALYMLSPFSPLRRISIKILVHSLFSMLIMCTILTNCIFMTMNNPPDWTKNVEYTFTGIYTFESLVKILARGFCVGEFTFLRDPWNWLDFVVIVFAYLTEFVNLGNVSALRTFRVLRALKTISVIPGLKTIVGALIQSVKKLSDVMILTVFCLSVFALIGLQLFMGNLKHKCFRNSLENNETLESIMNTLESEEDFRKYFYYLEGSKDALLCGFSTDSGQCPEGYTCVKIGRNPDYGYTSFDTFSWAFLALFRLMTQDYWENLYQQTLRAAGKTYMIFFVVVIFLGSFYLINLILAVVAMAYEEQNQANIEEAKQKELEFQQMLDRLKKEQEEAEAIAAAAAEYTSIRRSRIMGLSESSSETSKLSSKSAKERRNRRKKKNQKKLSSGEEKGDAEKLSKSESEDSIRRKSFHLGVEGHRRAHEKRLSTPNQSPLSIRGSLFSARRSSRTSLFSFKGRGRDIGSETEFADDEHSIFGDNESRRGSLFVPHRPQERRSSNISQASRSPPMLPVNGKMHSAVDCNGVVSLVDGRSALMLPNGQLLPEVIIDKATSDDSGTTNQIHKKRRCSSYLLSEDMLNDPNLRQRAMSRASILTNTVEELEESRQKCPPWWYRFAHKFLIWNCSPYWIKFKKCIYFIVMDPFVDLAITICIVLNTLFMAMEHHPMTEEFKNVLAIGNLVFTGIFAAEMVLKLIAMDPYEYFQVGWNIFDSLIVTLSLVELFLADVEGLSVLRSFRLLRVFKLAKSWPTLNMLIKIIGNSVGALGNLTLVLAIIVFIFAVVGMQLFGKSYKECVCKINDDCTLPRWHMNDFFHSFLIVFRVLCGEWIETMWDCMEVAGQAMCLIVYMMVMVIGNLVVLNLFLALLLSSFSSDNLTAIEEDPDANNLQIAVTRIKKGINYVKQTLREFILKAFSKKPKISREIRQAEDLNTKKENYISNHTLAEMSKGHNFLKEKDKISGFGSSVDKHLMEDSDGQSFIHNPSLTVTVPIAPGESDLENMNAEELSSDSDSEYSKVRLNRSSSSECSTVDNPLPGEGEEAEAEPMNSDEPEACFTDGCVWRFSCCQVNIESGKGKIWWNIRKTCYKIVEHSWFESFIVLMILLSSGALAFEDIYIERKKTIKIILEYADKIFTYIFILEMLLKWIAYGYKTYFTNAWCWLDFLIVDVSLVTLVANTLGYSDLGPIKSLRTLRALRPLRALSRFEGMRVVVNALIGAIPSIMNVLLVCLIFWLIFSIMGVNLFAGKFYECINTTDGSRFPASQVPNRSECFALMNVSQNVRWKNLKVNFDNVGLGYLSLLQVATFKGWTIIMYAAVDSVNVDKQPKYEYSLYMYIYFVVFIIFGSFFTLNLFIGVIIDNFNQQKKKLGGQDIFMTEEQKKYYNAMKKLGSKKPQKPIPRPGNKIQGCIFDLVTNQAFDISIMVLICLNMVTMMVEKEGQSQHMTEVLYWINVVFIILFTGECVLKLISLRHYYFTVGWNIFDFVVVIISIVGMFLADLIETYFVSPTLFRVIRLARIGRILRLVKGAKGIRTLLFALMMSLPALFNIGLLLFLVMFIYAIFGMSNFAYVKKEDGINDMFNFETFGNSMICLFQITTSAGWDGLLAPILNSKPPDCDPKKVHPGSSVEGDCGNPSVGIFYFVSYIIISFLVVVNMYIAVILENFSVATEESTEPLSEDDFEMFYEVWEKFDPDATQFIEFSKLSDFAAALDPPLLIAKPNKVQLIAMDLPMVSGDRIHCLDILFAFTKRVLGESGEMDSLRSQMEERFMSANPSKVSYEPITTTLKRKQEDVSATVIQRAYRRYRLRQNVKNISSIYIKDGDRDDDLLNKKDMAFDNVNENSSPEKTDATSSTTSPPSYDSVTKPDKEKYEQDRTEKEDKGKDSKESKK
Chain of Tst3 toxin from Tityus stigmurus venom (P0C8X5 whole entry): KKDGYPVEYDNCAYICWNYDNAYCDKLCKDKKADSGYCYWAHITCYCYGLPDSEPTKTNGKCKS

Ts3 toxin from Tityus serrulatus venom (natural protein)
increase of the fast inactivation time constant (Δτ) of Nav1.4 currents recorded at 0 mV, whole-cell patch clamp, 200 nM Ts3 [1]: 4.82 ms | increase of the persistent current (ΔIPers) of Nav1.4, whole-cell patch clamp, 200 nM Ts3 [1]: 3.1% | shift of the half-maximal activation voltage (ΔV1/2) of Nav1.4, whole-cell patch clamp, 200 nM Ts3 [1]: -4.15 mV | shift of the half-maximal steady-state inactivation voltage (ΔV1/2h) of Nav1.4, whole-cell patch clamp, 200 nM Ts3 [1]: 2.03 mV | delay of fast inactivation of Nav1.7 currents recorded at 0 mV, whole-cell patch clamp, 200 nM Ts3 [2]: 9.37 ms

Tst3 toxin from Tityus stigmurus venom (from UniProt P0C8X5 1-64) (natural protein)
increase of the fast inactivation time constant (Δτ) of Nav1.2, whole-cell patch clamp, 200 nM Tst3 [3]: 9.17 ms | shift of the half-maximal activation voltage (ΔV1/2) of Nav1.2, whole-cell patch clamp, 200 nM Tst3 [3]: -9.02 mV | increase of the fast inactivation time constant (Δτ) of Nav1.3, whole-cell patch clamp, 200 nM Tst3 [4]: 6.87 ms | shift of the half-maximal activation voltage (ΔV1/2) of Nav1.3, whole-cell patch clamp, 200 nM Tst3 [4]: -8.68 mV | increase of the fast inactivation time constant (Δτ) of Nav1.6, whole-cell patch clamp, 200 nM Tst3 [5]: 6.37 ms | shift of the half-maximal activation voltage (ΔV1/2) of Nav1.6, whole-cell patch clamp, 200 nM Tst3 [5]: -3.82 mV | increase of the fast inactivation time constant (Δτ) of Nav1.1, whole-cell patch clamp, 200 nM Tst3 [6]: 5.71 ms | shift of the half-maximal activation voltage (ΔV1/2) of Nav1.1, whole-cell patch clamp, 200 nM Tst3 [6]: -7.15 mV | increase of the fast inactivation time constant (Δτ) of Nav1.5, whole-cell patch clamp, 200 nM Tst3 [7]: 13.2 ms | shift of the half-maximal activation voltage (ΔV1/2) of Nav1.5, whole-cell patch clamp, 200 nM Tst3 [7]: -8.66 mV | increase of the fast inactivation time constant (Δτ) of Nav1.7, activation protocol of the isoform screen, whole-cell patch clamp, 200 nM Tst3 [8]: 18.8 ms | shift of the half-maximal activation voltage (ΔV1/2) of Nav1.7, whole-cell patch clamp, 200 nM Tst3 [8]: -8.55 mV | increase of the fast inactivation time constant (Δτ) of Nav1.4, activation protocol of the isoform screen, whole-cell patch clamp, 200 nM Tst3 [9]: 5.61 ms | increase of the fast inactivation time constant (Δτ) of Nav1.4 currents recorded at 0 mV, two-step protocol of the Tst3/Ts3 comparison, whole-cell patch clamp, 200 nM Tst3 [1]: 6.09 ms | increase of the persistent current (ΔIPers) of Nav1.4, whole-cell patch clamp, 200 nM Tst3 [1]: 4.4% | shift of the half-maximal activation voltage (ΔV1/2) of Nav1.4, whole-cell patch clamp, 200 nM Tst3 [1]: -5.19 mV | shift of the half-maximal steady-state inactivation voltage (ΔV1/2h) of Nav1.4, whole-cell patch clamp, 200 nM Tst3 [1]: 1.22 mV | delay of fast inactivation of Nav1.7 currents recorded at 0 mV, whole-cell patch clamp, 200 nM Tst3 [2]: 12.6 ms
